Here are results for 20 sequences from a protein production outcome set (Wang et al. 2014).
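Note: failed if final PepcDB status was selected cloned or expressed and not failed if soluble or beyond.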

The nature of this series: label from the status in PepcDB records.
Consider “MADLRKAARGRECQVRIPGVCNGNPETSVLAHIRLTGLCGTGTKPPDLIATIACSACHDEIDRRTHFVDAGYAKECALEGMARTQVIWLKEGVIKA”, for which the protein production entry is “not failed”.

Consider “MADLTDALIDAALERGRSAHANEPRAAKARYDRSSARVIVDLENGCTFAFPPRLAQGLEGASDDQLCAVEILGQGYGLHWETLDVDLSLPGLMAGIFGTKAWMAKRAEPPPSAAKDAWSNLPR”, for which the protein production entry is given as “not failed”.

On to “MADNYVIWFENLRMTDVERVGGKNASLGEMISQLTEKGVRVPGGFATTAEAYRAFLAHNGLSERISAALAKLDVEDVAELARVGKEIRQWILDTPFPEQLDAEIEAAWNKMVADAGGADISVAVRSSATAEDLPDASFAGQQETFLNINGLDNVKEAMHHVFASLYNDRAISYRVHKGFEHDIVALSAGVQRMVRSDSGASGVMFTLDTESGYDQVVFVTSSYGLGENVVQGAVNPDEFYVFKPTLKAGKPAILRKTMGSKHIKMIFTDKAEAGKSVTNVDVPEEDRNRFSITDEEITELAHYALTIEKHYGRPMDIEWGRDGLDGKLYILQARPETVKSQEEGNRNLRRFAINGDKTVLCEGRAIGQKVGQGKVRLIKDASEMDSVEAGDVLVTDMTDPDWEPVMKRASAIVTNRGGRTCHAAIIARELGIPAVVGCGNATELLKNGQEVTVSCAEGDTGFIYAGLLDVQITDVALDNMPKAPVKVMMNVGNPELAFSFANLPSEGIGLARMEFIINRQIGIHPKALLEFDKQDDELKAEITRRIAGYASPVDFYVDKIAEGVATLAASVYPRKTIVRMSDFKSNEYANLVGGNVYEPHEENPMLGFRGAARYVADNFKDCFALECKALKRVRDEMGLTNVEIMIPFVRTLGEAEAVVKALKENGLERGKNGLRLIMMCELPSNAVLAEQFLQYFDGFSIGSNDMTQLTLGLDRDSGLVSESFDERNPAVKVMLHLAISACRKQNKYVGICGQGPSDHPDFAKWLVEEGIESVSLNPDTVIETWLYLANELNK”, for which the protein production result is recorded as “not failed”.

Consider “MADSKGTASPAKPLQPPSAATPIIERVIKQMESEDGWVSLGEVGKHLSNLASDFDPRTFGFRKLSDLVRKTNAFELEQQNGHLEHHHHHH”, for which the protein production result is “failed”.

In the case of “MADSKKITFEMNESVLTAQFSRLDEMASVVERRFSELKMTIEDVGNADPGSKITESLGGLQSGLGTISSAFGQLGSSSEAITSGFGTAVGSVGGITDAFKNLGSSVQNGTLFSSLSTGIGGMSTMLGGVTGGVQGITNLASGFMELKNHLGGLMSSIGGVGGIMGKLTSPMGLVIIGIVALVAAFTYLMTTNESFRNTVMSVVTQVAQLFGQLVASLMPIIMQIITAVMQIGAALMPIVMQFISFFAQLLAQLMPFINMLIAMLMPVIMQIVQVVMSLVSALLPSIMTVIQGIMSVIQFLIPIIMKIATVVVQIVVTIISYISKIMPIVMMIIGVIISIITTIISYIVVIATTISNVIGKIISFIASVITSIIGIVQPIIGFITNIFSSIVTVIGAAFQMVFAVASKIWNAIMATISGIIDGIKSVITGISTTVSSVFNGVKRIITGVFDGIKGAWGGLTEFVGTIFDGVSNAIQTVVDNVKGFVNVVIRGINSAISLINKIPGVEIGKIPQLISGTTNFQGGFARMNEGGRGEMVVLPSGSQVIPHDATMKYARESARGNKSMLYTNQGTDLARVENLLERLLQKNPVIKMDDKVVSEVVSRNQANSFDQYNYTMGGAAYS”, the protein production entry is “failed”.

Turning to “MADTSCKLKPLCFRFVSTLKSPIAVITVTYSPGKYLASFLDSLPGATSRDTHVVMADNGSVDGVPEQAAASRSNVEFLSTGGNLGYGTAINIAARSLRARREAGEIDGEFFLVSNPDVVFDEDSIDQLLECAKRHPEAGAVGPLIREADGSAYPSARAVPTLANGIGHALLGAVWKSNPWSAAYRDDEDMDTERTAGWLSGSCLLLRWDAFDRVGGFDERYFMYMEDVDLGDRLVRAGFTNVFCPSAQIIHAKGHVAGKNPENMLPAHHESAYRFQADRLAKPWQAPIRLALRIGLKLRAGVAVGVSKMRTKASLEHHHHHH”, the protein production result was “failed”.

For the sequence “MAEAVERTDELVREYLLFRGFTHTLRQLDAEIKADKEKGFRVDKIVDQLQQLMQVYDLAALRDYWSYLERRLFSRLEDIYRPTINKLKTSLFRFYLVYTIQTNRNDKAQEFFAKQATELQNQAEWKDWFVLPFLPSPDTNPTFATYFSRQWADTFIISLHNFLSVLFQCMPVPVILNFDAECQRTNQVQEENEVLRQKLFALQAEIHRLKKEEQQQEEEAAALVQHKLPPYVSSMDRLGDSELALVCSQRPASLSQSPRVGFLSSLLPQSKKSPSRLSPAQGPPQAQSSAKKDSFSSQATKGKDSVPGAKDGKSLLSGPVPGEASWTHQRQRRLQDHGKERRELLSTSSSQSQCAERKPEVSGAEAEPCLELHMGPVEVLARVSTAGSEGDRPEQPFIVLSQEEYGEHHSSIMHCRVDCSGRRVASLDVDGVIKVWSFNPIMQTKASSISKSPLLSLEWATKRDRLLLLGSGVGTVRLYDTEAKKNLCEININDDMPRILSLACSPNGASFVCSAAAPSLTSQTDSSAPDIGSKGMNQVPGKLLLWDTKTMKQQLQFSLDPEPIAINCTAFNHNGNLLVTGAADGVIRLFDMQQHECAMSWKAHCGEVYSVEFSCDENAVYSIGEDRKFIQWNIHKSGLKVSESNLPSDATGPFVLSGYSGYKQVQVPRGRLFAFDSEGNYMLTCSATGGLIYKLGSEEKVLENCLSLGGHRAPVVTVDWSTAMDCGTCLTASMDGKIKLTTLLAHKL”, the protein production result was “failed”.

Turning to “MAEEKVKDEAMQIMGMFQILPRLVVFDLDYTLWPFYCECRSKREMPSMYPQAKGILSALKEKGIEMAIASRSPTSDIANTFLDKLNIKPMFVAKVSKMGVTSILVGDGVTLGAFRQGLTEFTQNHNSIEKNKQVWRDKYSGKPTSSETDKD”, the protein production result is given as “failed”.

For the sequence “MAEGKAMSEFLPFSRPAMGVEELAAVKEVLESGWITTGPKNQALEQAFCQLTGNQHAIAVSSATAGMHITLMALKIGKGDEVITPSLTWVSTLNMISLLGATPVMVDVDRDTLMVTPEAIESAITPRTKAIIPVHYAGAPADIDAIRAIGERYGIAVIEDAAHAVGTYYKGRHIGAKGTAIFSFHAIKNITCAEGGLIVTDNENLARQLRMLKFHGLGVDAYDRQTWGRAPQAEVLTPGYKYNLTDINAAIALTQLVKLEHLNTRRREIAQQYQQALAALPFQPLSLPAWPHVHAWHLFIIRVDEQRCGISRDALMEALKERGIGTGLHFRAAHTQKYYRERFPTLSLPNTEWNSERICSLPLFPDMTTADADHVITALQQLAGQ”, the protein production result is “failed”.

With “MAEKQKHDGRVKIGHYVLGDTLGVGTFGKVKIGEHQLTGHKVAVKILNRQKIRSLDVVGKIKREIQNLKLFRHPHIIKLYQVISTPTDFFMVMEYVSGGELFDYICKHGRVEEMEARRLFQQILSAVDYCHRHMVVHRDLKPENVLLDAHMNAKIADFGLSNMMSDGEFLRTSCGSPNYAAPEVISGRLYAGPEVDIWSCGVILYALLCGTLPFDDEHVPTLFKKIRGGVFYIPEYLNRSVATLLMHMLQVDPLKRATIKDIREHEWFKQDLPSYLFPEDPSYDANVIDDEAVKEVCEKFECTESEVMNSLYSGDPQDQLAVAYHLIIDNRRIMNQASEFYLASSPPSGSFMDDSAMHIPPGLKPHPERMPPLIADSPKARCPLDALNTTKPKSLAVKKAKWHLGIRSQSKPYDIMAEVYRAMKQLDFEWKVVNAYHLRVRRKNPVTGNYVKMSLQLYLVDNRSYLLDFKSIDDEVVEQRSGSSTPQRSCSAAGLHRPRSSFDSTTAESHSLSGSLTGSLTGSTLSSVSPRLGSHTMDFFEMCASLITTLAR”, the protein production result is listed as “failed”.

As to “MAELILNQRPYPRDLGKIVCVGRNYAAHAKELNNPIPSSPILFIKPASSAVPFGPVFSIPKDQGSVHHELEIAILIGKALSRASTEQVAESIAGIGLGLDLTLRDVQDQLKEKGHPWERAKSFDGACPLTEFVAVNLASEDEWQAIGLTLEKNGQFQQQGSSAEMLFPILPLIAHMSEHFSLQPGDVILTGTPAGVGPLEVGDSLSAKLSLEDNVLLTCDGVVI”, the protein production result is reported as “not failed”.

For the sequence “MAENLRDSVVHRDIALLSFCAPVMLERLPSSFVKHIELWLSAAGLGIIFGVGYASGPSGPAFWRLIAVIAVGIGVVHGFIFWAVRRRQRQVRRQSIREIQQMLSDVLKNKLAAINMYLPEDADEEMVKQELDGVRASIEDIADEIENISEESIEGWKEHYSGAVERTTNL”, the protein production entry is “failed”.

For “MAENVGSDSSEFESISSSQKSYLKNCPFAGHEALPTKSTDSDNTEVLGNQISPAVVKTPILSFSSPTSLDSINDDVFRTPPENASLSSAAESEPRVGVSEIKLQGGSNLTTPFSMAETTLVSSSPSLPAENVRVSESNLKSSSSTAKTTPVSASPSVNARVSESNLNSSSSTTPVSVSPSEKVRVFETTPVSASPSEKVRVFETKCHSDSGDSVPLSSSPPSVAADDVRVPAKHLDSDSSPPTAIGRTMVLVKQRISASDNSASSSASEGTKVSKTENSGEVLPFKEIIEALLRNSGEKLNERDDKVSYVEILKQCGLKFPK”, the protein production entry is on record as “failed”.

Take “MAEPKFTSFTTADFINDVDMELFIDAVEKTAPVWVKEMKSRGLLKFSMNRVWNKGEVFRVVMTYEYKDRASFEANIAYLEDTFGKNPVFLQLVTTAKFTTSRCLVVMEV”: the protein production entry is “not failed”.

On to “MAEPVDVLVLGGGPAALCIASELNQWGVAVGCIAPDPVDASWPNTYGIWADELKMVGLEHLLEHRWSDTVSFFGAGGSTAQDQSHAHGIDYGLFDRAELQRYWLERADGVVWHQDTAERVDATSATTSVSCVSGTTLQARLVIDASGSRTPHIRRPDQGPVAGQAAYGVVGRFSQPPIEAGRFVLMDYRCDHLSAAQRQEPPTFLYAMDLGDGVFFVEETSLALAPGFSYDVLKQRLQQRLDQRGVAITEVIHEEFCLFPMNLPLPDRSQPLLAFGGAASMVHPASGYMVGSLLRRGPDLAKALAEALANRNLGSAALAQRGWQALWPIELVLRHQLYQFGLGRLMGFNEALLRTHFATFFSLPREEWFGFLTNTLPLPRLMGVMLRLFALSPWELRRGLVLGAAMDQLPTFDQSSG”, for which the protein production entry was “failed”.

As to “MAERTSDPAANDRFYFRQLLSGRDFAGADPIAQQMRNFAYFIGDRETGEAVVVDPAYAADELAAALEADGMRLAGVLVTHHHPDHVGGSMMGFTLKGVAELLEHRSVPVHVNSHEADWVSQVTGIARSELSAHEHGDTISVGAIDIELLHTPGHTPGSQCFLVDGRLVAGDTLFLEGCGRTDFPGGNVDDMFRSLQALAKLPGDPTVYPGHWYSAEPSAPLEEVKRSNYVYRASNLDQWRMLMGG”, the protein production result is listed as “failed”.

Turning to “MAESKRDYYEVLGVSKDADDAAIKKAYRALAKKYHPDMNPGDAEAEKKFKEASEAYAVLSDAEKRRQYDQFGHAAFEGGAGGAGGFGGFDFNGADFGDIFGDIFGDLFGGGGRRGGRANNGPMKGANIRKSIRITFEEAVFGCKKELEVILKDPCTTCGGTGAKPGTSPETCPKCGGKGQVVYTSQSFFGTVQNVQTCPNCGGSGKVIKEKCTSCSGTGYTSSKKKIEVTIPAGIDNGQSVRIREKGEPGTNGGPRGDLLVEVNVSRHPIFQRQDMHIFSTVPISFAQAALGGDVKIQTVDGAVIYNVKPGTKTDTKVRLKGKGVPSLRNSAVRGDHYVTLVIQTPEKLSAEAKEALRRFDELSGNSLHQNDSNPEKSEKKTKRKGFMDKVKEAFEGED”, the protein production result is given as “failed”.

For the sequence “MAESQALSDDIGFLLSRVGGMVLGAVNKALVPTGLRVRSYSVLVLACEQAEGVNQRGVAATMGLDPSQIVGLVDELEERGLVVRTLDPSDRRNKLIAATEEGRRLRDDAKARVDAAHGRYFEGIPDTVVNQMRDTLQSIAFPTFVE”, the protein production entry is reported as “not failed”.

For “MAEVHNQLEIKFRLTDGSDIGPKAFPDATTVSALKETVISEWPREKENGPKTVKEVKLISAGKVLENSKTVKDYRSPVSNLAGAVTTMHVIIQAPVTEKEKKPKGDPKMNKCVCSVM”, the protein production result is recorded as “not failed”.

Take “MAEWSKAPDSSSGLRKRAWIRPWQREHMTIESVDHETRSMTQRFTVPEFFEGYKMITSTTKVNDSAIGLYSLVDISVEYDKTGPEIKDLDQVQFLVDYINELVLRTGGQLLRRLK”: the protein production entry was “failed”.
